Assays:
[1] = molecular target: T1, soluble Tie2-Fc (fusion of the ectodomain of Tie-2 receptor and the Fc domain of human IgG1, R&D Inc) (human, UniProt Q02763 23-748); assay: protein-A pull-down with sTie2-Fc, anti-FLAG Western blot
T1 construct: Bought (R&D Inc) for the Biacore assay; human Tie2 would be UniProt Q02763; also called sTie2-Fc; T2; not shown: Fc domain of human IgG1 and any linker
Experimental: Twenty nanograms of each protein was incubated with 100 ng of sTie1-Fc or sTie2-Fc for […], and then, protein-A conjugated agarose beads were added. The precipitate was separated by 10% SDS-PAGE, and electro-blotted on to nitrocellulose membranes. The nitrocellulose membranes were Western blotted with anti-FLAG M1 antibody, washed, and incubated with horseradish peroxidase-conjugated secondary antibody. Signals were visualized by chemiluminescent detection according to the manufacturer's protocol (Amersham Pharmacia Biotech) and chemiluminescence scanner (LAS-1000, Fuji Film, Tokyo). CB, control buffer; PC, positive control of same amount of each recombinant protein without binding.
Twenty nanograms of each recombinant chimeric-Ang1 protein and 100 ng of soluble Tie1-Fc or soluble Tie2-Fc were incubated in 500 μl Tris-buffer solution (50 mM Tris, 100 mM NaCl, pH 7.4) containing 0.02% TritonX-100 at 4° C. for 2 hr. Then, 20 μl of protein-A agarose beads (Oncogene) was added and incubated for another 1 hr at 4° C. The protein-A conjugated samples were washed twice with 1 ml of Tris-buffer containing 0.02% TritonX-100. The samples were eluted with sample buffer, and heat-denatured. The samples were further separated by 10% SDS-PAGE, and electro-blotted on to nitrocellulose membranes, and Western blotted with anti-FLAG M1 antibody to detect the bound recombinant chimeric-Ang1, and further washed and incubated with horseradish peroxidase-conjugated secondary antibody. Signal was visualized by chemiluminescent detection according to the manufacturer's protocol (Amersham Pharmacia Biotech) using chemiluminescence scanner (LAS-1000, Fuji Film, Tokyo). Approximately 75%, 20%, 95% or 100% of native Ang1, GCN4-Ang1/FD, CMP-Ang1/FD, and COMP-Ang1/FD, respectively, bound to sTie2-Fc. In contrast, none of them bound to sTie1-Fc.

[2] = molecular target: Tie2 receptor on human umbilical vein endothelial cells (HUVECs) (human, UniProt Q02763 23-1124); assay: cell-based or functional assay
Chain of Tie2 receptor on human umbilical vein endothelial cells (HUVECs) (Q02763 23-1124): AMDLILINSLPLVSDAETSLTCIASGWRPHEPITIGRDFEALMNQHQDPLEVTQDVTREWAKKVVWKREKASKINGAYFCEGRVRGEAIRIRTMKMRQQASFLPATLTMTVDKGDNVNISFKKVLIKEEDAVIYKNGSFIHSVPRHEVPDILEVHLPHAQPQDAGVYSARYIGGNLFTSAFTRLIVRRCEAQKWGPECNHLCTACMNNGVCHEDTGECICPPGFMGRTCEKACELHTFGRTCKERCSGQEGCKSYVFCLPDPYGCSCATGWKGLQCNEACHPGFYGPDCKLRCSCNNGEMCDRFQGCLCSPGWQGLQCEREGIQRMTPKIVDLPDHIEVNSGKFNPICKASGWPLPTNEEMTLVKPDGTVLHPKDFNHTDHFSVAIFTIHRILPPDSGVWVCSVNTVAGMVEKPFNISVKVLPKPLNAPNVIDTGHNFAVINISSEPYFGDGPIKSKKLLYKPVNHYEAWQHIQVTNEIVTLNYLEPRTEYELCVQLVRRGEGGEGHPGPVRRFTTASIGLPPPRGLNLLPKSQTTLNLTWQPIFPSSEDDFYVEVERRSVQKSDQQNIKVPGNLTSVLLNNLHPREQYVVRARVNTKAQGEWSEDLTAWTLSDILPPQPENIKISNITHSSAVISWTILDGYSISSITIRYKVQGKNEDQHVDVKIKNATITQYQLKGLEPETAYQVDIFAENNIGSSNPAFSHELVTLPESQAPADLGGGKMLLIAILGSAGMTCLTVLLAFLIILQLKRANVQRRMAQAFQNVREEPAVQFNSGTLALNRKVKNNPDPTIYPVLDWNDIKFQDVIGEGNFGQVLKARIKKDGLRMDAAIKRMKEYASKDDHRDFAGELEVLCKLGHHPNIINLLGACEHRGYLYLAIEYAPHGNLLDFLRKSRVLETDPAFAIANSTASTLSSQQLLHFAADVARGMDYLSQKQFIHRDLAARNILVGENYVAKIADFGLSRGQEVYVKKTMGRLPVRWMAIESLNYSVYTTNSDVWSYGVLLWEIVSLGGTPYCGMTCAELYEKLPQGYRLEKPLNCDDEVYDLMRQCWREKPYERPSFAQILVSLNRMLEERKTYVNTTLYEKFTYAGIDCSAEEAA

[3] = molecular target: T1, soluble Tie2-Fc (fusion of the …); assay: Biacore, Tie2-Fc immobilized on CM5 chip, Fc reference subtracted
Experimental: (§1) FIGS. 10A-10D show in vitro binding assay between recombinant native Ang1, GCN4-Ang1/FD, CMP-Ang1/FD, or COMP-Ang1/FD and immobilized soluble Tie2-Fc using Biacore assay. Each recombinant protein was passed over a Biacore sensor chip that had extracellular domain of Tie2-Fc and Fc protein covalently coupled to it, followed by dissembling in absence of the recombinant proteins. Concentrations of the recombinant proteins are shown in each panel. Specificity of binding was assessed by subtracting Fc protein binding value from Tie2-Fc binding value during the measurement. Binding of the sensor chip is provided in resonance units (RUs).
(§2) Alternatively, to determine whether the COS-7 cell-derived recombinant proteins of native Ang1, GCN4/CC-Ang1/FD, CMP/CC-Ang1/FD and COMP/CC-Ang1/FD could bind to Tie-2 receptor, standard Biacore analysis was performed by BIA2000 (BIAcore, Inc.). Briefly, 600 ng of Tie-2-Fc receptor protein (R&D Inc), which is a fusion protein composed of the ectodomain of Tie-2 receptor and Fc domain of human IgG1, was immobilized on a Biacore chip (Sensor Chip CM5). As a control, 600 ng of Fc protein, which had only the Fc domain of human IgG1, was also immobilized on the same chip. The binding affinity was obtained by subtracting the response value using Fc protein from the values obtained using the Tie-2-Fc protein.

[4] = molecular target: T1, soluble Tie2-Fc (fusion of the …); assay: Biacore, Tie2-Fc immobilized on CM5 chip
Experimental: as §1, §2

[5] = molecular target: T1, soluble Tie2-Fc (fusion of the …); assay: binding assay with soluble Tie2 (details not given)

T1 sequence (Q02763 23-748 limits assumed): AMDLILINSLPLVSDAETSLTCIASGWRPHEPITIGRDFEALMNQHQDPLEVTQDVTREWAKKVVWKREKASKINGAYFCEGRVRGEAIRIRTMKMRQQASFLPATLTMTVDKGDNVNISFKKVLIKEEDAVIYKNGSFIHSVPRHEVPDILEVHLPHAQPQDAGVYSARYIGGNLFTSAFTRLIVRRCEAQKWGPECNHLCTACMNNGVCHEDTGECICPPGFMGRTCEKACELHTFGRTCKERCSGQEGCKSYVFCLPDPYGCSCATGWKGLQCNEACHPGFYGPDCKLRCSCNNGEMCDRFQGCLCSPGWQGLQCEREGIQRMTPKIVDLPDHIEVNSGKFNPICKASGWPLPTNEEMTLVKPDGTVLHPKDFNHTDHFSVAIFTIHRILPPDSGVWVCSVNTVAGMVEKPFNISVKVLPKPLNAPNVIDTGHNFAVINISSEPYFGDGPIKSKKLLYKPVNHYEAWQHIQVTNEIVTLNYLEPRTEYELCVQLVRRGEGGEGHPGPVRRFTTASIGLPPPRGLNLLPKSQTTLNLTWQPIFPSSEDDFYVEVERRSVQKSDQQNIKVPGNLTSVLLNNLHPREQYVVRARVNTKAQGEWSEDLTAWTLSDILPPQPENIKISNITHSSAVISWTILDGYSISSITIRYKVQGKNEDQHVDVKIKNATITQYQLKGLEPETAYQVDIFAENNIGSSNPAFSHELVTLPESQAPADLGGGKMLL

B1: COMP/CC-Ang1/FD (coiled-coil domain of COMP - fibrinogen domain of Ang1) (ligand)
chain: DYKDDDDKGILDLAPQMLRELQETNAALQDVRELLRQQVKEITFLKNTVMECDACGGSLVNLCTKEGVLLKGGKREEEKPFRDCADVYQAGFNKSGIYTIYINNMPEPKKVFCNMDVNGGGWTVIQHREDGSLDFQRGWKEYKMGFGNPSGEYWLGNEFIFAIYSQRQYMLRIELMDWEGNRAYSQYDRFHIGNEKQNYRLYLKGHTGTAGKQSSLILHGADFSTKDADNDNCMCKCALMLTGGWWFDACGPSNLNGMFYTAGQNHGKLNGIKWHYFKGPSYSLRSTTMMIRPLDF
notes: The end, 312, is worked out from the stated lengths: 16 signal + 8 FLAG + 3 + 45 COMP + 2 + 238 Ang1 Leu261-498; ~180 kDa and ~250 kDa were observed under non-reducing conditions; also called COMP-Ang1/FD; CO/CC-A1/FD
percent of input protein bound [1]: ~100%
Tie2 phosphorylation (ratio of phospho-Tie2 to Tie2, control buffer = 1) [2]: ~8.8 fold
Kd [3]: 0.0205 µM
concentration at which binding was saturated [4]: > 125 nM

B2: Ang1/FD (truncated Ang1 that contains only the fibrinogen-like domain, amino acids 284-498) (ligand)
chain: RDCADVYQAGFNKSGIYTIYINNMPEPKKVFCNMDVNGGGWTVIQHREDGSLDFQRGWKEYKMGFGNPSGEYWLGNEFIFAIYSQRQYMLRIELMWEGNRAYSQYDRFHIGNEKQNYRLYLKGHTGYAGKQSSLILHGADFSTKDADNDNCMCKCALMLTGGWWFDACGPSNLNGMFYTAGQNHGKLNGIKWHYFKGPSYSLRSTTMMIRPLDF
notes: The range 284-498 is counted on Ang1, not on the entry; also called monomeric Ang1/FD; recombinant Ang1/FD
binding result [5]: no binding

B3: native Ang1 (recombinant FLAG-tagged human angiopoietin-1 with C-terminal Myc and His tags) (ligand)
chain: DYKDDDDKLRYNRIQHGQCAYTFILPEHDGNCRESTTDQYNTNALQRDAPHVEPDFSSQKLQHLEHVMENYTQWLQKLENYIVENMKSEMAQIQQNAVQNHTATMLEIGTSLLSQTAEQTRKLTDVETQVLNQTSRLEIQLLENSLSTYKLEKQLLQQTNEILKIHEKNSLLEHKILEMEGKHKEELDTLKEEKENLQGLVTRQTYIIQELEKQLNRATTNNSVLQKQQLELMDTVHNLVNLCTKEGVLLKGGKREEEKPFRDCADVYQAGFNKSGIYTIYINNMPEPKKVFCNMDVNGGGWTVIQHREDGSLDFQRGWKEYKMGFGNPSGEYWLGNEFIFAITSQRQYMLRIELMDWEGNRAYSQYDRFHIGNEKQNYRLYLKGHTGTAGKQSSLILHGADFSTKDADNDNCMCKCALMLTGGWWFDACGPSNLNGMFYTAGQNHGKLNGIKWHYFKGPSYSLRSTTMMIRPLDFDIQHSGGRSSLEGPRFEQKLISEEDLNMHTGHHHHHH
notes: Multimer of variable sizes under non-reducing conditions; Produced in COS-7 cells; also called nAng1
percent of input protein bound [1]: ~75%
Tie2 phosphorylation (ratio of phospho-Tie2 to Tie2, control buffer = 1) [2]: ~3.6 fold
Kd [3]: 0.0075 µM
concentration at which binding was saturated [4]: > 125 nM

B4: GCN4/CC-Ang1/FD (coiled-coil domain of GCN4 - fibrinogen domain of Ang1) (ligand)
chain: DYKDDDDKGILMKQLEDKVEELLSKNYHLENEVARLKKLVGEGSLVNLCTKEGVLLKGGKREEEKPFRDCADVYQAGFNKSGIYTIYINNMPEPKKVFCNMDVNGGGWTVIQHREDGSLDFQRGWKEYKMGFGNPSGEYWLGNEFIFAIYSQRQYMLRIELMDWEGNRAYSQYDRFHIGNEKQNYRLYLKGHTGYAGKQSSLILHGADFSTKDADNDNCMCKCALMLTGGWWFDACGPSNLNGMFYTAGQNHGKLNGIKWHYFKGPSYSLRSTTMMIRPLDF
notes: The end, 298, is worked out from bases 1-897 including the stop codon; ~80 kDa under non-reducing conditions; also called GCN4-Ang1/FD; G/CC-A1/FD
percent of input protein bound [1]: ~20%
Kd [3]: 0.159 µM
concentration at which binding was saturated [4]: ~30 nM

B5: CMP/CC-Ang1/FD (coiled-coil domain of CMP - fibrinogen domain of Ang1) (ligand)
chain: YKDDDDKGILDEDPCECKSIVKFQTKVEELINTLQQKLEAVAKRIEALENKIIGSLVNLCTKEGVLLKGGKREEEKPFRDCADVYQAGFNKSGIYTIYINNMPEPKKVFCNMDVNGGGWTVIQHREDGSLDFQRGWKEYKMGFGNPSGEYWLGNEFIFAIYSQRQYMLRIELMDWEGNRAYSQYDRFHIGNEKQNYRLYLKGHTGTAGKQSSLILHGADFSTKDADNDNCMCKCALMLTGGWWFDACGPSNLNGMFYTAGQNHGKLNGIKWHYFKGPSYSLRSTTMMIRPLDF
notes: The end, 310, is worked out from bases 1-933 including the stop codon; ~140 kDa and ~180 kDa were observed under non-reducing conditions; also called CMP-Ang1/FD; C/CC-A1/FD
percent of input protein bound [1]: ~95%
Tie2 phosphorylation (ratio of phospho-Tie2 to Tie2, control buffer = 1) [2]: ~4 fold
Kd [3]: 0.067 µM
concentration at which binding was saturated [4]: ~30 nM

— patent US20080160574A1 (KOREA ADVANCED INSTITUTE OF SCIENCE AND TECHNOLOGY KAIST, published 2008)
